Stoichiometry N data for 2 substances are collected here from doi:10.1101/682807.

“And” between values parts separate entries of the source, which are not always exact repeats. Equal values may be shown once.

Assay [1] deals with RPP7b-3×FLAG (A. thaliana). Nature of the assay: native gel or EMSA.
Assay [2] addresses HR4^Fei-0 (overexpressed in N. benthamiana) (A. thaliana). The assay can be described thus: SDS-resistant dimers on SDS-PAGE immunoblot.

Consider RPP7b-3×FLAG (natural protein), for which the stoichiometry N in assay [1] was 7 and 6.

As for “HR4^Fei-0 (overexpressed in N. benthamiana) (natural protein)”, in assay [2], the stoichiometry N turned out to be 2.
